In publication PMC10638432, “Biodistribution and function of coupled polymer-DNA origami nanostructures”:

Molecular target: recombinant human TNF-alpha (biotinylated, R&D Systems BT210) (human, UniProt P01375 77-233)
Assay: flow cytometry (FACS) bead binding; TT linker did not affect binding; PBS-/- (no Ca/Mg) with 0.005% Tween-20, 1 h at 37 C, biotinylated TNFa on streptavidin magnetic beads; pH not stated
Conditions: protein: commercial; tags: biotin; chain copies: 3; label: 5' ATTO647N

Chain of recombinant human TNF-alpha (biotinylated, R&D Systems BT210) (P01375 77-233): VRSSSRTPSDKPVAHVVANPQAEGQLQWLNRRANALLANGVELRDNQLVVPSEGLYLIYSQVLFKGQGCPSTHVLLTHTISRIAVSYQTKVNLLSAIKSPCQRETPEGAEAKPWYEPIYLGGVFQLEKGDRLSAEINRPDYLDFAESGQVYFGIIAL

## TTTGGTGGATGGCGCAGTCGGCGACAA (ssDNA) [TNFa aptamer polyT linker (hTNFa long rod aptamer)]
  binding result: binds
